Reference: patent US20220403048A1, “BINDING MOLECULES TO ARGINASE II [ARG2]” (Cancer Research Technology Limited, priority 2019, published 2022)

T1: ARG2 (Homo sapiens, UniProt P78540)
T1 sequence (P78540 23-354): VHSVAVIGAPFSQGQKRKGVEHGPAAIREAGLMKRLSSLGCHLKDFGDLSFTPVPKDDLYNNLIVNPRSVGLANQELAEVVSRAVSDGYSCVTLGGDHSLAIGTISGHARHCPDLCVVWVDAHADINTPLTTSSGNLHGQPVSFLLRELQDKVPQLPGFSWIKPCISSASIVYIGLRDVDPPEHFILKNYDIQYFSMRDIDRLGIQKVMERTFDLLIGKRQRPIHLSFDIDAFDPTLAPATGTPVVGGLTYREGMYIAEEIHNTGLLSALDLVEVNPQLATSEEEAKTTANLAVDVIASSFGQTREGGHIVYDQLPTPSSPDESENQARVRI

T2: recombinant human trimeric ARG1 enzyme (Homo sapiens, UniProt P05089)
T2 construct: Avi tag (N); His10 (after a GGG linker) (C); made in house; host or cells: E. coli BL21 (DE3)
T2 sequence (P05089 with tags, fused parts or gaps): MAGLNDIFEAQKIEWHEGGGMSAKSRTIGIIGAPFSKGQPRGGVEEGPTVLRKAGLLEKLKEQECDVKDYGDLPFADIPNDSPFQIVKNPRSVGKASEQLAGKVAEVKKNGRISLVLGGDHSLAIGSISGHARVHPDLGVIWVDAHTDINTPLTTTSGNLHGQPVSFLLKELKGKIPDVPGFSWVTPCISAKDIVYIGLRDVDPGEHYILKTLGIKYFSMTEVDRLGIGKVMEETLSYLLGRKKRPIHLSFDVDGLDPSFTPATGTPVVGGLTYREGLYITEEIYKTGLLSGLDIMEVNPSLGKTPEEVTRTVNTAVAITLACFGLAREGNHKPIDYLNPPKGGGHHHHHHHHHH

T3: trimeric human ARG2 (Homo sapiens, UniProt P78540)
T3 construct: human ARG2 (aa23-354); His10 (C); made in house; host or cells: E. coli BL21 (DE3)
T3 sequence (P78540 23-354): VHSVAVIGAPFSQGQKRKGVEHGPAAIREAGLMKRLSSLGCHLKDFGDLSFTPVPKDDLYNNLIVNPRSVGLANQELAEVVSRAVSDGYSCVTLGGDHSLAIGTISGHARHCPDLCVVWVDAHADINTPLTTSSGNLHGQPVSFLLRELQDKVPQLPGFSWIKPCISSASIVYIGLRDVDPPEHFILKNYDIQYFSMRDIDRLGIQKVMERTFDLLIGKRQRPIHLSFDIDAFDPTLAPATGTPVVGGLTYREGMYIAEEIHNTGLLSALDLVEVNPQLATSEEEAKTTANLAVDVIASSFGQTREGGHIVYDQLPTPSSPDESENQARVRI


Assays:
ARG2 = biological target: T1, ARG2; assay: Dynamic light scattering of ARG2-Fab complex sizes; set-up: human ARG2 (aa23-354); His10 (C); made in house; host or cells: E. coli BL21 (DE3); settings: FIG. 23B
Experimental: ARG2 and Fabs were analysed at concentrations of 8 μM (referring to monomers) in buffer containing 25 mM tris at pH 7.4 and 150 mM NaCl (FIG. 23). ARG2-Fab complexes were formed by mixing both ARG2 and Fabs at concentrations of 8 μM (referring to monomers) and incubation on ice for 1 h. Dynamic light scattering (DLS) was performed on a Zetasizer Ultra (Malvern Panalytical) using multiangle DLS. Data was collected in a 3×3 mm cuvette (Hellma Analytics) using a sample volume of 30 μl. Volume weighted size-distributions were corrected for refractive index, viscosity, and background scatter of the buffer by the instrument software.

[1] = biological target: T2, recombinant human trimeric ARG1 enzyme; assay: Direct binding HTRF assay, human trimeric ARG1; settings: purified scFv, FIG. 1B
trimeric human ARG2 = biological target: T3, trimeric human ARG2; assay: Human trimeric ARG2 enzyme inhibition assay (urea production); format: biochemical
Experimental: Unpurified anti-ARG2 scFv fragments from periplasmic preparations were screened in an ARG2 enzyme inhibition assay using a Pherastar plate reader (BMG Labtech, Germany). In this assay, the ability of unpurified scFv to inhibit the enzymatic activity of trimeric ARG2 was determined by measuring the production of urea, the product of L-arginine turnover by ARG2.
Selection outputs were screened as unpurified bacterial periplasmic extracts containing scFv, prepared in 200 mM TES buffer pH 7.4, 0.5 mM EDTA and 0.5 M sucrose. 10 μl of unpurified scFv were added to a Greiner Bio-One® 384 well assay plate (Greiner Bio-one, UK; cat: 781901). This was followed by the addition of 5 μl of 1.6 μg/ml trimeric human ARG2 that had been diluted in 40 mM MnCl2, 100 mM tris-HCl, pH7.4 (4× enzyme buffer). […]
Urea was detected by the simultaneous addition of equal volumes of O-Phthaldialdehyde (1.5 mM O-Phthaldialdehyde, 7% H2SO4, 0.03% Brij L23) and N-(1-Napthyl)ethylenediamine (1.66 mM N-(1-Napthyl)ethylenediamine, 81 mM Boric acid, 21% H2SO4, 0.03% Brij L23) followed by an 18 minute incubation at room temperature before the colorimetric product was quantified on the Pherastar by measuring absorbance at 505 nm. […]
Data were analysed by calculating % maximum (max) control for each sample using the 505 nm absorbance data. % max control was determined according to equation 2. […]
IC50 values were determined by testing a dilution series of the purified scFv, prepared in TBS, in the ARG2 enzyme inhibition assay described in section 1.5, substituting the unpurified scFv periplasmic preparation with the purified scFv.
Background control wells were defined for each plate by the omission of substrate. […] Data were analysed by calculating % maximum (max) control for each sample. % max control was determined according to equation 1 detailed in section 1.5. […]
Data were again analysed by calculating % Max control values for each sample. […]

| binding to biotinylated recombinant human trimeric ARG1 enzyme [1] | inhibition of the activity of human trimeric ARG2 (trimeric human ARG2; purified recombinant human IgG1, FIG. 3) | inhibition of the activity of human trimeric ARG2 (trimeric human ARG2; purified scFv, FIG. 2) | Molecule | increase in average hydrodynamic radius (Rh) of ARG2-Fab complexes in comparison with ARG2-C0020187 Fab complexes (ARG2) [nm] |
| --- | --- | --- | --- | --- |
| – | – | – | C0021139: anti-ARG2 antibody, VH SEQ ID NO: 212, VL SEQ ID NO: 217 (antibody, listed as Homo sapiens, V domains shown, C0021139) VH: EVQLLESGGGLVQPGGSLRLSCAASGFTFQYDYQVWVRQAPGKGLEWVSAISGSGGSTYYADSVKGRFTISRDNSKNTLYLQMNSLRAEDTAVYYCARLRADLGLYMDLWGRGTLVTVSS VL: QSVLTQPPSVSAAPGQKVTISCSGSSSNIGNHYVSWYQQLPGTAPKLLIYDNSERTSGIPDRFSGSKSGTSATLGITGLQTGDEADYYCGTWDELTSNLVFGGGTKLTVL | 1.5 |
| no binding | inhibited | inhibited | C0020065: anti-ARG2 antibody, alternate lead isolation clone, VH SEQ ID NO: 2, VL SEQ ID NO: 7 (antibody, listed as Homo sapiens, V domains shown, C0020065) VH: GVNLRESGGGVVQPGRSLRLSCAASGFTFSSYAMHWVRQAPGKGLEWVAVISYDGSNKYYVDSVKGRFTISRDNSKNTLYLQMNSLRAEDTAVYYCARDSSQLWFDYWGRGTLVTVSS VL: QSVVTQPPSVSGAPGQRVTISCTGSSSNIGTGYDVHWYQQLPGTAPKLLIYGNSNRPSGVPDRFSGSKSGTSASLAITGLQAEDEADYYCQSYDSSLSGSVVFGGGTQLTVL | – |
